Laboratory results from publication PMC4067742, “Direct Observations of Amyloid β Self-Assembly in Live Cells Provide Insights into Differences in the Kinetics of Aβ(1–40) and Aβ(1–42) Aggregation” (Chemistry & Biology, 2014).

Test system: trypsin
Test: Fluorescence lifetime after trypsin treatment of the labeled peptide
Assay type: physicochemical
Conditions: trypsin-treated monomeric peptide, cleavage into short fragments; FLIM; mean ± SD
Excerpt: For the HF488 dye to function as a direct reporter of amyloid formation in vivo, its fluorescence lifetime must respond to the conformational changes associated with amyloid formation but remain largely unaffected by extrinsic factors, such as the solution conditions that the Aβ peptides may encounter in the living cell. […] That is, it is insensitive to pH changes in this range. […] Furthermore, the fluorescence lifetime of the unconjugated HF488 dye (4.0 ± 0.1 ns) is longer than that of the Aβ-conjugated dye (3.7 ± 0.05 ns), perhaps as a result of interactions between the dye and the polypeptide chain in the latter case ([Chen et al., 2010]). […]
All FLIM experiments were carried out using HF488-labeled Aβ peptides, and images were recorded by time-correlated single photon counting (TCSPC) using a confocal microscopy platform built on an Olympus Fluoview FV300 confocal scan unit. […] The excitation beam was reflected onto the sample with a 20/80 broad bandwidth coated beam splitter so that 20% of the excitation light passed on to the sample and 80% of the fluorescence signal was reflected toward the confocal pinhole. The fluorescence light was passed through a 515-nm Semrock long-pass filter (Laser 2000) and passed onto a fast photomultiplier tube (PMC-100, Becker & Hickl). Lifetimes were recorded using TCSPC circuitry (SPC-830, Becker & Hickl). […]

## ^HF488Aβ(1–40): Synthetic 40-residue amyloid β peptide labeled at the N terminus with Hilyte Fluor 488, purchased from Anaspec
  mean fluorescence lifetime after trypsin treatment: 4.0 ± 0.1 ns
